Laboratory results: patent US20220372147A1 (UNIVERSIT T STUTTGART, published 2022)

Assays:
[1] = biological target: T1, HER3-Fc fusion protein, extracellular domain (ECD) of HER3 (aa 21-643) fused to an Fc part (UniProt P21860 21-643); experiment: ELISA, immobilized HER3-Fc, anti-His-HRP detection
T1 construct: range 21-643; not shown: Fc part

[2] = biological target: T2, His-tagged HER3 protein, extracellular domain (ECD) of HER3 (aa 21-643) (UniProt P21860 21-643); experiment: ELISA, immobilized HER3-His, anti-human Fc-HRP detection
T2 construct: range 21-643; also called HER3-His; not shown: His-tag

[3] = biological target: T3, CD3 on CD3-expressing Jurkat cells (human, UniProt P07766 23-207); experiment: flow cytometry on CD3-expressing Jurkat cells, PE anti-human Fc
T3 construct: whole, on cells

[4] = biological target: T4, HER3 on HER3-expressing cancer cells (LIM1215, BT474) (UniProt P21860 20-1342, limits assumed); experiment: flow cytometry on HER3-expressing BT474 cells, PE anti-human Fc
T4 construct: whole, on cells; also called HER3-expressing LIM1215 cells; HER3-expressing BT474 cells

[5] = biological target: T4, HER3 on HER3-expressing cancer cells …; experiment: flow cytometry on HER3-expressing LIM1215 cells, PE anti-human Fc
[6] = biological target: T4, HER3 on HER3-expressing cancer cells …; experiment: cell-based or functional assay
[7] = biological target: T5, MET Fc fusion protein, extracellular domain (ECD) of MET (aa 25-787) (UniProt P08581 25-787); experiment: ELISA, immobilized MET-Fc, anti-human Fab-HRP detection
T5 construct: range 25-787; not shown: Fc part
T5 sequence (P08581 25-787 limits assumed): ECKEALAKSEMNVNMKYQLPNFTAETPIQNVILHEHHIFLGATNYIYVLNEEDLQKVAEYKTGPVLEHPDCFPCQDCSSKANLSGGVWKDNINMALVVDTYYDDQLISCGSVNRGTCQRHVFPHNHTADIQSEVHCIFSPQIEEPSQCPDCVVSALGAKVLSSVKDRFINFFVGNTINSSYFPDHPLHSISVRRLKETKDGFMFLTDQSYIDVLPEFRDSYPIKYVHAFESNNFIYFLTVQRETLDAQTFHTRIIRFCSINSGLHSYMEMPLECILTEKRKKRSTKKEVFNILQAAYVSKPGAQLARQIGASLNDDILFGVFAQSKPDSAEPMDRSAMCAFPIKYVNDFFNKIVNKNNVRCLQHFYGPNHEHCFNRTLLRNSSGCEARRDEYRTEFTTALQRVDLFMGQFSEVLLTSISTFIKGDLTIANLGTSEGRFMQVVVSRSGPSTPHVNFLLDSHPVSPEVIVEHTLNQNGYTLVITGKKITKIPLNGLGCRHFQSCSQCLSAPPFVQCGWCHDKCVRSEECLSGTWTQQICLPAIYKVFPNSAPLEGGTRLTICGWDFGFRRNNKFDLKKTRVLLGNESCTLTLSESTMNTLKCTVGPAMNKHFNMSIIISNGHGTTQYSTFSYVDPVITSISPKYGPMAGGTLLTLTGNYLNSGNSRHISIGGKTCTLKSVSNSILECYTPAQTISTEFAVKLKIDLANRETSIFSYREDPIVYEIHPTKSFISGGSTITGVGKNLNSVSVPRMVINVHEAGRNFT

T3 sequence (P07766 23-207): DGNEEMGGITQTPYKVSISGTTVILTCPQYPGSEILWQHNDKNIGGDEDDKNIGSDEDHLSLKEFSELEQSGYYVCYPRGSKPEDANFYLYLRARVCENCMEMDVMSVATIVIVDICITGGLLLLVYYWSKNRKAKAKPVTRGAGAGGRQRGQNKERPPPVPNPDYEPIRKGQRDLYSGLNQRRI

B1: Fv3-43-hetEHD2 eFab molecule 8 (C102T Fd; C14T,N39Q light chain) (Fab, V domains shown)
VH: QVQLQQSGPGLVKPSQTLSLTCAISGDSVSSNRAAWNWIRQSPSRGLEWLGRTYYRSKWYNDYAQSLKSRITINPDTPKNQFSLQLNSVTPEDTAVYYCARDGQLGLDALDIWGQGTMVTVSS
VL: QAGLTQPPAVSVAPGQTASITCGRDNIGSRSVHWYQQKPGQAPVLVVYDDSDRPAGIPERFSGSNYENTATLTISRVEAGDEADYYCQVWGITSDHVVFGGGTKLTVLD
notes: Monovalent anti-HER3 Fab-like molecule; His-tag on the Fd chain
EC50 [1]: 6.2 nM

B2: bivalent and monospecific eIg molecule targeting HER3 (antibody, V domains shown)
VH: QVQLQQSGPGLVKPSQTLSLTCAISGDSVSSNRAAWNWIRQSPSRGLEWLGRTYYRSKWYNDYAQSLKSRITINPDTPKNQFSLQLNSVTPEDTAVYYCARDGQLGLDALDIWGQGTMVTVSS
VL: QAGLTQPPAVSVAPGQTASITCGRDNIGSRSVHWYQQKPGQAPVLVVYDDSDRPAGIPERFSGSNYENTATLTISRVEAGDEADYYCQVWGITSDHVVFGGGTKLTVLG
notes: Homodimerizing Fc; also called monospecific, bivalent eIg antibody; anti-HER3 bivalent eIg
EC50 [2]: 1.4 nM

B3: Fv3-43-hetEHD2 eFab molecule 6 (C102N Fd; C14T,N39Q light chain) (Fab, V domains shown)
VH: QVQLQQSGPGLVKPSQTLSLTCAISGDSVSSNRAAWNWIRQSPSRGLEWLGRTYYRSKWYNDYAQSLKSRITINPDTPKNQFSLQLNSVTPEDTAVYYCARDGQLGLDALDIWGQGTMVTVSS
VL: QAGLTQPPAVSVAPGQTASITCGRDNIGSRSVHWYQQKPGQAPVLVVYDDSDRPAGIPERFSGSNYENTATLTISRVEAGDEADYYCQVWGITSDHVVFGGGTKLTVLD
notes: Monovalent anti-HER3 Fab-like molecule; His-tag on the Fd chain; also called C14T,N39Q:N39,C102N
EC50 [1]: 4.1 nM

B4: Fv3-43-hetEHD2 eFab molecule 1 (C102A Fd; C14A,N39Q light chain) (Fab, V domains shown)
VH: QVQLQQSGPGLVKPSQTLSLTCAISGDSVSSNRAAWNWIRQSPSRGLEWLGRTYYRSKWYNDYAQSLKSRITINPDTPKNQFSLQLNSVTPEDTAVYYCARDGQLGLDALDIWGQGTMVTVSS
VL: QAGLTQPPAVSVAPGQTASITCGRDNIGSRSVHWYQQKPGQAPVLVVYDDSDRPAGIPERFSGSNYENTATLTISRVEAGDEADYYCQVWGITSDHVVFGGGTKLTVLD
notes: Monovalent anti-HER3 Fab-like molecule; His-tag on the Fd chain; also called C14A,N39Q:N39,C102A
EC50 [1]: 12.1 nM

B5: Fv3-43-hetEHD2 eFab molecule 4 (C102T Fd; C14N,N39Q light chain) (Fab, V domains shown)
VH: QVQLQQSGPGLVKPSQTLSLTCAISGDSVSSNRAAWNWIRQSPSRGLEWLGRTYYRSKWYNDYAQSLKSRITINPDTPKNQFSLQLNSVTPEDTAVYYCARDGQLGLDALDIWGQGTMVTVSS
VL: QAGLTQPPAVSVAPGQTASITCGRDNIGSRSVHWYQQKPGQAPVLVVYDDSDRPAGIPERFSGSNYENTATLTISRVEAGDEADYYCQVWGITSDHVVFGGGTKLTVLD
notes: Monovalent anti-HER3 Fab-like molecule; His-tag on the Fd chain; also called C14N,N39Q:N39,C102T
EC50 [1]: 3 nM

B6: Fv3-43-hetEHD2 eFab molecule 5 (C102A Fd; C14W,N39Q light chain) (Fab, V domains shown)
VH: QVQLQQSGPGLVKPSQTLSLTCAISGDSVSSNRAAWNWIRQSPSRGLEWLGRTYYRSKWYNDYAQSLKSRITINPDTPKNQFSLQLNSVTPEDTAVYYCARDGQLGLDALDIWGQGTMVTVSS
VL: QAGLTQPPAVSVAPGQTASITCGRDNIGSRSVHWYQQKPGQAPVLVVYDDSDRPAGIPERFSGSNYENTATLTISRVEAGDEADYYCQVWGITSDHVVFGGGTKLTVLD
notes: as for B1
EC50 [1]: 11 nM

B7: Fv3-43-hetEHD2 eFab molecule 9 (C102S Fd; C14S,N39Q light chain) (Fab, V domains shown)
VH: QVQLQQSGPGLVKPSQTLSLTCAISGDSVSSNRAAWNWIRQSPSRGLEWLGRTYYRSKWYNDYAQSLKSRITINPDTPKNQFSLQLNSVTPEDTAVYYCARDGQLGLDALDIWGQGTMVTVSS
VL: QAGLTQPPAVSVAPGQTASITCGRDNIGSRSVHWYQQKPGQAPVLVVYDDSDRPAGIPERFSGSNYENTATLTISRVEAGDEADYYCQVWGITSDHVVFGGGTKLTVLD
notes: N-glycan only on the Fd EHD2-2 domain; also called originally used eFab (C14S,N39Q:N39,C102S)
EC50 [1]: 3.7 nM

B8: Fv3-43-hetEHD2 eFab molecule 3 (C102N Fd; C14A,N39Q light chain) (Fab, V domains shown)
VH: QVQLQQSGPGLVKPSQTLSLTCAISGDSVSSNRAAWNWIRQSPSRGLEWLGRTYYRSKWYNDYAQSLKSRITINPDTPKNQFSLQLNSVTPEDTAVYYCARDGQLGLDALDIWGQGTMVTVSS
VL: QAGLTQPPAVSVAPGQTASITCGRDNIGSRSVHWYQQKPGQAPVLVVYDDSDRPAGIPERFSGSNYENTATLTISRVEAGDEADYYCQVWGITSDHVVFGGGTKLTVLD
notes: Monovalent anti-HER3 Fab-like molecule; His-tag on the Fd chain; also called C14A,N39Q:N39,C102N
EC50 [1]: 4.8 nM

B9: Fv3-43-hetEHD2 eFab molecule 2 (C102W Fd; C14T,N39Q light chain) (Fab, V domains shown)
VH: QVQLQQSGPGLVKPSQTLSLTCAISGDSVSSNRAAWNWIRQSPSRGLEWLGRTYYRSKWYNDYAQSLKSRITINPDTPKNQFSLQLNSVTPEDTAVYYCARDGQLGLDALDIWGQGTMVTVSS
VL: QAGLTQPPAVSVAPGQTASITCGRDNIGSRSVHWYQQKPGQAPVLVVYDDSDRPAGIPERFSGSNYENTATLTISRVEAGDEADYYCQVWGITSDHVVFGGGTKLTVLD
notes: as for B1
EC50 [1]: 7.3 nM

B10: Fv3-43-hetEHD2 eFab molecule 7 (C102T Fd; C14W,N39Q light chain) (Fab, V domains shown)
VH: QVQLQQSGPGLVKPSQTLSLTCAISGDSVSSNRAAWNWIRQSPSRGLEWLGRTYYRSKWYNDYAQSLKSRITINPDTPKNQFSLQLNSVTPEDTAVYYCARDGQLGLDALDIWGQGTMVTVSS
VL: QAGLTQPPAVSVAPGQTASITCGRDNIGSRSVHWYQQKPGQAPVLVVYDDSDRPAGIPERFSGSNYENTATLTISRVEAGDEADYYCQVWGITSDHVVFGGGTKLTVLD
notes: as for B1
EC50 [1]: 7.1 nM

B11: bispecific, trivalent eIg-Fab4 targeting HER3 and CD3 (bispecific antibody)
light 1: QAGLTQPPAVSVAPGQTASITCGRDNIGSRSVHWYQQKPGQAPVLVVYDDSDRPAGIPERFSGSNYENTATLTISRVEAGDEADYYCQVWGITSDHVVFGGGTKLTVLGQPKAAPSVTLFPPSSEELQANKATLVCLISDFYPGAVTVAWKADSSPVKAGVETTTPSKQSNNKYAASSYLSLTPEQWKSHRSYSCQVTHEGSTVEKTVAPTECS
heavy 1: not shown
light 2: not shown
heavy 2: QVQLQQSGPGLVKPSQTLSLTCAISGDSVSSNRAAWNWIRQSPSRGLEWLGRTYYRSKWYNDYAQSLKSRITINPDTPKNQFSLQLNSVTPEDTAVYYCARDGQLGLDALDIWGQGTMVTVSSASTKGPSVFPLAPSSKSTSGGTAALGCLVKDYFPEPVTVSWNSGALTSGVHTFPAVLQSSGLYSLSSVVTVPSSSLGTQTYICNVNHKPSNTKVDKKVEPKSCGGSGGGGSGGQVQLVQSGAEVKKPGSSVKVSCKASGGTFSGYTMNWVRQAPGQGLEWMGLINPYKGVSTYNGKFKDRVTITADKSTSTAYMELSSLRSEDTAVYYCARSGYYGDSDWYFDVWGQGTLVTVSSDFTPPTVKILQSSCDGGGHFPPTIQLLCLVSGYTPGTINITWLEDGQVMDVDLSTASTTQEGELASTQSELTLSQKHWLSDRTYTCQVTYQGHTFEDSTKKSADSNGTDKTHTCPPCPAPPVAGPSVFLFPPKPKDTLMISRTPEVTCVVVDVSHEDPEVKFNWYVDGVEVHNAKTKPREEQYNSTYRVVSVLTVLHQDWLNGKEYKCKVSNKGLPSSIEKTISKAKGQPREPQVCTLPPSRDELTKNQVSLSCAVKGFYPSDIAVEWESNGQPENNYKTTPPVLDSDGSFFLVSKLTVDKSRWQQGNVFSCSVMHEALHNHYTQKSLSLSPGK
EC50 [3]: 5.9 nM
EC50 [4]: 0.6 nM
EC50 [5]: 0.21 nM
EC50 value in cell killing (PBMC-mediated cytotoxicity on BT-474 cells, crystal violet) [6]: 0.2 nM
EC50 value in cell killing (PBMC-mediated cytotoxicity on LIM1215 cells, crystal violet) [6]: 0.1 nM

B12: bispecific, trivalent eIg-Fab2 targeting HER3 and CD3 (bispecific antibody)
light 1: QAGLTQPPAVSVAPGQTASITCGRDNIGSRSVHWYQQKPGQAPVLVVYDDSDRPAGIPERFSGSNYENTATLTISRVEAGDEADYYCQVWGITSDHVVFGGGTKLTVLGQPKAAPSVTLFPPSSEELQANKATLVCLISDFYPGAVTVAWKADSSPVKAGVETTTPSKQSNNKYAASSYLSLTPEQWKSHRSYSCQVTHEGSTVEKTVAPTECS
light 2: not shown
heavy 1: not shown
heavy 2: not shown
EC50 [3]: 0.2 nM
EC50 [4]: 1.7 nM
EC50 [5]: 1.3 nM

B13: bispecific bivalent anti-cMET x anti-HER3 eIgG1 (EHD2 configuration HC1-LC2) (bispecific antibody)
light 1: QAGLTQPPAVSVAPGQTASITCGRDNIGSRSVHWYQQKPGQAPVLVVYDDSDRPAGIPERFSGSNYENTATLTISRVEAGDEADYYCQVWGITSDHVVFGGGTKLTVLGQPKAAPSVTLFPPSSEELQANKATLVCLISDFYPGAVTVAWKADSSPVKAGVETTTPSKQSNNKYAASSYLSLTPEQWKSHRSYSCQVTHEGSTVEKTVAPTECS
heavy 1: not shown
heavy 2: not shown
light 2: DIQMTQSPSSLSASVGDRVTITCKSSQSLLYTSSQKNYLAWYQQKPGKAPKLLIYWASTRESGVPSRFSGSGSGTDFTLTISSLQPEDFATYYCQQYYAYPWTFGQGTKVEIKRTDFTPPTVKILQSSCDGGGHFPPTIQLLCLVSGYTPGTINITWLEDGQVMDVDLSTASTTQEGELASTQSELTLSQKHWLSDRTYTCQVTYQGHTFEDSTKKSADSN
notes: Four different polypeptide chains, knob-into-hole Fc
EC50 [7]: 3.8 nM
EC50 [2]: 1 nM

B14: bispecific bivalent anti-cMET x anti-HER3 eIgG2 (EHD2 configuration HC2-LC1) (bispecific antibody)
light 1: QAGLTQPPAVSVAPGQTASITCGRDNIGSRSVHWYQQKPGQAPVLVVYDDSDRPAGIPERFSGSNYENTATLTISRVEAGDEADYYCQVWGITSDHVVFGGGTKLTVLGQPKAAPSVTLFPPSSEELQANKATLVCLISDFYPGAVTVAWKADSSPVKAGVETTTPSKQSNNKYAASSYLSLTPEQWKSHRSYSCQVTHEGSTVEKTVAPTECS
heavy 1: not shown
heavy 2: not shown
light 2: DIQMTQSPSSLSASVGDRVTITCKSSQSLLYTSSQKNYLAWYQQKPGKAPKLLIYWASTRESGVPSRFSGSGSGTDFTLTISSLQPEDFATYYCQQYYAYPWTFGQGTKVEIKRTDFTPPTVKILQSSSDGGGHFPPTIQLLCLVSGYTPGTIQITWLEDGQVMDVDLSTASTTQEGELASTQSELTLSQKHWLSDRTYTCQVTYQGHTFEDSTKKCADSN
notes: as for B13
EC50 [7]: 5.4 nM
EC50 [2]: 1.4 nM
